For one assay, the target named is T1, murine CCT5 (mouse, UniProt P80316 2-541).
T1 construct: Endogenous CCT5 in B16-F10 melanoma cells; also called mouse CCT5
Nature of the assay: immunoprecipitation and Western blot, B16-F10 cells.

A further assay addresses T2, RalGapB (UniProt Q86X10 1-1494, limits assumed).
T2 sequence (looked up): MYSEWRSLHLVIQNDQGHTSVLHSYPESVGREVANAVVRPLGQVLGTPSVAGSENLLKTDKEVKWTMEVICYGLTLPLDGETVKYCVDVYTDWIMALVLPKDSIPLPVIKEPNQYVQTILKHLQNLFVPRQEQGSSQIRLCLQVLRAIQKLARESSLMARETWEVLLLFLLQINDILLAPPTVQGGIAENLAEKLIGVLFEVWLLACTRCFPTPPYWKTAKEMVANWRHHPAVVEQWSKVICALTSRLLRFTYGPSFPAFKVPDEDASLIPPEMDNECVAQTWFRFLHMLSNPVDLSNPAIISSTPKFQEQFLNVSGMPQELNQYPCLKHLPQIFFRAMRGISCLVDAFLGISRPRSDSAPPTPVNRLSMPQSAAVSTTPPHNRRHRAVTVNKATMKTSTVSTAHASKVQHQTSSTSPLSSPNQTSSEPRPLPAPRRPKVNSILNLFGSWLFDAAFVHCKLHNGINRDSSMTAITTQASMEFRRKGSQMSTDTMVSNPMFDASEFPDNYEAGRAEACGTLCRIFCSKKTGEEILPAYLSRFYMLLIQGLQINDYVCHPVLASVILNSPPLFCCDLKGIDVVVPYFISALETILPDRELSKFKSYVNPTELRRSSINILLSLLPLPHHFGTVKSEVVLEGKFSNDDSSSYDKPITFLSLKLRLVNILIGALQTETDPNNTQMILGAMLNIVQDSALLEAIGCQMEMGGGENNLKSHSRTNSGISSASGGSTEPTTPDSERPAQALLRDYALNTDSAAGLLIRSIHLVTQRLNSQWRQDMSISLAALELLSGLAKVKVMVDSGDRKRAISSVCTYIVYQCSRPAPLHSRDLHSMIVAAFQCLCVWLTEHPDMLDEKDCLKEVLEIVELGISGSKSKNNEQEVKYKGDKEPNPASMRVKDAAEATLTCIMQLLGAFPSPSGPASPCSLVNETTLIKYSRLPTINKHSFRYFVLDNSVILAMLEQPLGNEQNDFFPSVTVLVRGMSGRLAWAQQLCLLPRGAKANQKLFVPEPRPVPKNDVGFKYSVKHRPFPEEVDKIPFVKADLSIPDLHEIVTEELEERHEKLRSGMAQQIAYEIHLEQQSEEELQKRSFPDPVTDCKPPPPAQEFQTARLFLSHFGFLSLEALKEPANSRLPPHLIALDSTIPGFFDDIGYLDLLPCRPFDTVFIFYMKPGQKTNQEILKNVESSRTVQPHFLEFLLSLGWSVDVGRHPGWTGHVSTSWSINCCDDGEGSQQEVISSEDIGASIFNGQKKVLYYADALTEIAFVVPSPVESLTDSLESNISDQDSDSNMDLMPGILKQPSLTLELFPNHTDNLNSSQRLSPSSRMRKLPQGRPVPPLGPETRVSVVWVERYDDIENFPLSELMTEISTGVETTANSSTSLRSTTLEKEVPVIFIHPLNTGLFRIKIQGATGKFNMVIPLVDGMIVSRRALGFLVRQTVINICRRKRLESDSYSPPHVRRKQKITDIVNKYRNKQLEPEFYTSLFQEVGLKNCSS
Nature of the assay: immunoprecipitation from OvCar8, SKBR3 and MIAPACA2 lysates, Western blot with rabbit polyclonal antibodies. As for the experimental part: (§1) A. Immunoprecipitation and Mass Spectrometry to Identify Candidate Target Proteins Whole cell lysates of exemplary ovarian or leukemia cell lines were used for immunoprecipitation experiments with the antibody identified in Example 1. The identified antibody was covalently conjugated to magnetic epoxy beads, and 10 µg of bead-bound antibody were incubated with 1-2 mL whole cell lysate (at 1 mg protein/mL lysate) of ovarian carcinoma cell line (OvCar8) or acute myeloid leukemia cell line (SKM1). The cell lysates were also incubated with control antibodies known to bind the cell line, or beads alone. The immunoprecipitates were then washed and eluted first with low pH, and second with a cationic detergent elution buffer. The eluates were resolved by SDS-PAGE and stained with a protein stain to visualize the bands.
(§2) The immunoprecipitation with the identified antibody was repeated, with OvCar8 cells and also SKBR3 (breast cancer) and MIAPACA2 (pancreas carcinoma) cell lines. The eluates were resolved by SDS-PAGE, transferred for Western blot analysis using rabbit polyclonal antibodies specific to the top 10 candidate proteins identified in part A: RalGapa2, RalGapB, SPTAN1, IMPDH2, DNAJC13, SPTAN1, SNRNP200, PRPF8, CCT4, and CCT2. CCT2 and CCT4 were specifically detected in the immunoprecipitates from all assessed cancer cell lines. No bands corresponding to the other proteins were detected. CCT2 and CCT4 are both part of the TCP1 ring complex (TRiC).

The next assay has as its target PRPF8 (UniProt Q6P2Q9 2-2335). The description is as above. As for the experimental part: as §1, §2
A further assay addresses SPTAN1 (UniProt Q13813 1-2472, limits assumed). The assay is described as above. As for the experimental part:
as §1, §2

A further assay has as its target SNRNP200 (UniProt O75643 1-2136, limits assumed). The assay is described as above. As for the experimental part: as §1, §2
A further assay concerns the target DNAJC13 (UniProt O75165 1-2243). Described as above. As for the experimental part: as §1, §2
Another assay addresses RalGapa2 (UniProt Q2PPJ7 1-1873, limits assumed). The description is as above. As for the experimental part: as §1, §2
A further assay has as its target T3, human CCT5 (human, UniProt P48643 2-541, limits assumed).
T3 construct: also called Chaperonin Containing TCP1 Subunit 5; TRiC protein CCT5
Nature of the assay: immunoprecipitation from cytosolic and plasma membrane lysate fractions, Western blot for CCT5. The source says:
Cytosolic and plasma membrane (surface) lysate preparations of SK-BR-3 and OvCar3 cells were probed by Western blot for CCT5 after immunoprecipitation with the antibody identified Example 1, or a negative control antibody, Panitumumab.

This note sets out measurements from patent publication US12006356 (JUNO THERAPEUTICS, dated 2024).

T1 sequence (P80316 2-541 limits assumed): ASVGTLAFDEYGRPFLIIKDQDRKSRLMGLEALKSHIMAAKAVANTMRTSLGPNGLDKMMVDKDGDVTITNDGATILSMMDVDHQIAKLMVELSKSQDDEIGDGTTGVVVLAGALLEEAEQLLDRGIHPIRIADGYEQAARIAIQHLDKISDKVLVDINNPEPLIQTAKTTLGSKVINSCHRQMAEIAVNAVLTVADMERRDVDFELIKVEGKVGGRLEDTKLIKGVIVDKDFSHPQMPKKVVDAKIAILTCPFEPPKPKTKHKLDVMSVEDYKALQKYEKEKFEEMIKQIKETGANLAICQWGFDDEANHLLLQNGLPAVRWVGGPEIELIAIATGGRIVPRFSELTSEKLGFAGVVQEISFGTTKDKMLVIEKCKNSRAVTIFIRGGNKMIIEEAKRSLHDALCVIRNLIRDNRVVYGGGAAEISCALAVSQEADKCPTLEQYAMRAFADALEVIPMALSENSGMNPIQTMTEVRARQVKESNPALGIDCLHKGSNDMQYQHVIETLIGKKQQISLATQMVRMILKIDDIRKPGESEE
T3 sequence (P48643 2-541 limits assumed): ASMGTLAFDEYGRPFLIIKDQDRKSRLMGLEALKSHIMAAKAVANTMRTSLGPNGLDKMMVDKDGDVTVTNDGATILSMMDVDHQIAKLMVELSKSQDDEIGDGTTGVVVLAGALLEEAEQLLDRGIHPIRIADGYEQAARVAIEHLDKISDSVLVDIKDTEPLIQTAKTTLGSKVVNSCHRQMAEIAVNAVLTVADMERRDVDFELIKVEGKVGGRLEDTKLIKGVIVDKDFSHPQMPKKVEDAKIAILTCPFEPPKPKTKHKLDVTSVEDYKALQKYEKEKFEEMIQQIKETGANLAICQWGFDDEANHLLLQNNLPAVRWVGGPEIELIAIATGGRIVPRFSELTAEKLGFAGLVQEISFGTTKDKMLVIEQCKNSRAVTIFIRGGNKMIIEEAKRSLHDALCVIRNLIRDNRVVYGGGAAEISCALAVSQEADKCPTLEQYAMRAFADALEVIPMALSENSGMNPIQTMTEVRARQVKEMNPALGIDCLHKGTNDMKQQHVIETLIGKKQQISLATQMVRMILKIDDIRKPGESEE
DNAJC13, sequence (O75165 whole entry): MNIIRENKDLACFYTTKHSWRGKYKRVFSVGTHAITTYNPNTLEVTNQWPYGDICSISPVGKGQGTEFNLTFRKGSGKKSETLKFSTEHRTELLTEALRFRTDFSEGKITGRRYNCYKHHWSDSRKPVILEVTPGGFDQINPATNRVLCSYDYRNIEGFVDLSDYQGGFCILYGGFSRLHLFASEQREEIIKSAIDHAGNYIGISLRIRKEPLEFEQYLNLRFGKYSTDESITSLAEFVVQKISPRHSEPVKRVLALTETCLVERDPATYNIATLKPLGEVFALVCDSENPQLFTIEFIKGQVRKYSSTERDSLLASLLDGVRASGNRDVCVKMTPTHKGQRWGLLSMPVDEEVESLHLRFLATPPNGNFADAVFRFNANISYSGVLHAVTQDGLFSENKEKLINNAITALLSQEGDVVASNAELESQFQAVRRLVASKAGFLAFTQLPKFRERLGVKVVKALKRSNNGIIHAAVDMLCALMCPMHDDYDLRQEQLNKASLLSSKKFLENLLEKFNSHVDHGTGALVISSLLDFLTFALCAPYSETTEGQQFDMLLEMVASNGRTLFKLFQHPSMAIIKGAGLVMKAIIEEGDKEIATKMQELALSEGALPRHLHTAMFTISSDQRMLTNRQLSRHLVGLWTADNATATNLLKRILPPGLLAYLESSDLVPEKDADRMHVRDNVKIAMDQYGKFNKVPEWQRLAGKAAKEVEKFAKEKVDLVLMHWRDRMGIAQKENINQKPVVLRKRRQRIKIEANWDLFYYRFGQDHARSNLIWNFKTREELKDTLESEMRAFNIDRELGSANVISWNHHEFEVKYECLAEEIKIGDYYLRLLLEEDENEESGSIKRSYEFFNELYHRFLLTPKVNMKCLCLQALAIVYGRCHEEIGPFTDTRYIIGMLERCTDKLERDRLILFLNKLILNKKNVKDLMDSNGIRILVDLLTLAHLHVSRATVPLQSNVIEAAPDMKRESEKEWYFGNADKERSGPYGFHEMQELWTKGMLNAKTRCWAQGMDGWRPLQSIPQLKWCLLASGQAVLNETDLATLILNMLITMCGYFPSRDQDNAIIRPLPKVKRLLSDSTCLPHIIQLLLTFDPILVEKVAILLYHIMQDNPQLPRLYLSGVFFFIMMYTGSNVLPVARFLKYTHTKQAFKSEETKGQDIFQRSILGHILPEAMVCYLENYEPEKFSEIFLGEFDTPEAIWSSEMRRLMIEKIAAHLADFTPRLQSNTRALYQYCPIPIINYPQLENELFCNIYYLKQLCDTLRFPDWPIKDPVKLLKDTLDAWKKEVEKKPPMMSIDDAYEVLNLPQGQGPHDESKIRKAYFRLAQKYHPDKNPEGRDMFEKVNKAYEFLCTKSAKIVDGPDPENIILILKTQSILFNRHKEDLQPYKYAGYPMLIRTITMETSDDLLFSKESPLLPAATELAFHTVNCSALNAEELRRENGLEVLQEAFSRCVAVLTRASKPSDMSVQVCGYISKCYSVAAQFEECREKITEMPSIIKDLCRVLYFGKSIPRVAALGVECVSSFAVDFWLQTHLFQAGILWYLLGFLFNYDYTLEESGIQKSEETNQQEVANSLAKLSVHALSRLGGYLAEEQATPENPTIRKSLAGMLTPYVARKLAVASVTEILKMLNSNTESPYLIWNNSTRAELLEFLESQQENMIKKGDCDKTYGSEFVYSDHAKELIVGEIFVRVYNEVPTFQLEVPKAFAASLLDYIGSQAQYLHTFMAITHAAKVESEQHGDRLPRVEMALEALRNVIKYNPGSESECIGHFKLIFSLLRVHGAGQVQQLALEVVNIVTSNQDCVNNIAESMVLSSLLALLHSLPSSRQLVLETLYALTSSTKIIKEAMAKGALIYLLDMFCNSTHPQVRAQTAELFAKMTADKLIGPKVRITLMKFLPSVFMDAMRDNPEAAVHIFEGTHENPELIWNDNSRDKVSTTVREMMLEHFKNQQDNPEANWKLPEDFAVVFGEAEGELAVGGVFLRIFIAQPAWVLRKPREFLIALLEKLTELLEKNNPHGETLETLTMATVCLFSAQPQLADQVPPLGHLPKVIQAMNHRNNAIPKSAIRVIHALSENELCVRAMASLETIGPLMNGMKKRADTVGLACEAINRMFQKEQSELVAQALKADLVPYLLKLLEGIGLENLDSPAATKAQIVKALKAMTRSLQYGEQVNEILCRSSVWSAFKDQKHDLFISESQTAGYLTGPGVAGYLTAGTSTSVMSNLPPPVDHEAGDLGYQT

B1: exemplary anti-CCT5 antibody identified in Example 1 (antibody, V domains shown)
VH: EVQLVESGGGLVQPGGSLRLSCAASGFTFSSYSMNWVRQAPGKGLEWVSYISSSSSTIYYADSVKGRFTISRDNAKNSLYLQMNSLRDEDTAVYYCARDFKGDCSSTSCYRGGYYYYYGMDVWGQGTTVTVSS
VL: SYELTQPPSVSVSPGQTASITCFGDQLGDKYVSWYQKKPGQSPVLVIYQDANRPSGIPERFSGSNSGNTATLTIRGTQNLDEADYYCQTWGTTTALFGGGTKLTVL
notes: For immunoprecipitation it was covalently conjugated to magnetic epoxy beads; also called the identified antibody
Consider B1, for which the binding result is “binds” with murine CCT5; “no binding” with RalGapB; “no binding” with PRPF8; “no binding” with SPTAN1; “no binding” in the assay with SNRNP200; “no binding” with DNAJC13. Besides, the binding result with RalGapa2 is given as “no binding”; with human CCT5, “binds”.
